In patent publication CN113354737A (GUANGZHOU EXCELMAB BIOMEDICAL TECH CO LTD, dated 2021):
Like-named read-outs stand apart in the source and are kept apart here.

T1: 重组人GPC3近膜端抗原 (human, UniProt P51654 524-563)
T1 construct: range 524-563
T1 chain (looked up): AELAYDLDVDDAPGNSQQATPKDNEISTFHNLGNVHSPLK


Experiments:
Test in all cases: ELISA, coated antigen, HRP anti-human IgG
[1] = target: T1, 重组人GPC3近膜端抗原
[2] = target: T1, 重组人GPC3近膜端抗原
[3] = target: T1, 重组人GPC3近膜端抗原
[4] = target: T2, 重组人GPC3胞外区抗原 (human, UniProt P51654 25-559, limits assumed)
T2 construct: extracellular domain
T2 sequence (P51654 25-559 limits assumed): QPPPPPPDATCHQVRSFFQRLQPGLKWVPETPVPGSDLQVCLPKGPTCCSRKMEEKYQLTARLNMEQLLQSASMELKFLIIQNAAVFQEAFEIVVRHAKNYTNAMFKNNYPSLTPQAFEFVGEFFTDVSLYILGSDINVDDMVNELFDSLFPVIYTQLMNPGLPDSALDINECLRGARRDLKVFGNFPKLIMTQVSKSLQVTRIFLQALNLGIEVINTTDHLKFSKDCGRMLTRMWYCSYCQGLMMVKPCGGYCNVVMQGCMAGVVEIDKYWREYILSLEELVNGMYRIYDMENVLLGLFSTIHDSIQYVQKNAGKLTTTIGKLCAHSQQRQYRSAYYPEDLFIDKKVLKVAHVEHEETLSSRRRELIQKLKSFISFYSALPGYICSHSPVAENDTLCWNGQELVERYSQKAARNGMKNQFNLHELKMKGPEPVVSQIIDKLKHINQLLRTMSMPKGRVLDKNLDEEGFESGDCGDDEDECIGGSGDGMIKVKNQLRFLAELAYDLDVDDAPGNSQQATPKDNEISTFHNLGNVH

| EC50 [1] [µg/mL] | EC50 [2] [µg/mL] | EC50 [3] [µg/mL] | EC50 [4] [µg/mL] | Molecule |
| --- | --- | --- | --- | --- |
|  | 0.0428 |  |  | 亲和力成熟变体7C6 (antibody, V domains shown) VH: QVQLQQPGAELVKPGASVKLSCKASGYTFTTYYMYWVKQRPGQGLEWIGEINPSNGGTNFNEKFKSKATLTVDKSSSTAYMQLSSLTSEDSAVYYCTTFAYWGQGTLVTVSA VL: DIVMTQSPSSLSASLGGKVTITCKASQDINKYIVWYQHKPGKGPRLLIHYTSILQPGIPSRFSGSGSGRDYSFSISNLEPEDIATYYCLQYDNLWTFGGGTKLEIK |
|  | 0.141 | 0.0279 | 0.0836 | 人源GPC3抗体10C7 (antibody, V domains shown, also called 抗人GPC3抗体10C7) VH: QVQLVQSGAEVKKPGASVKLSCKASGYTFTDYEMHWVKQTPGKGLKWIGALDPKTGDTAYAQKFQGRATLTADTSTDTAYMELSSLRSEDSAVYYCTRFYSYTYWGQGTLVTVSS VL: DIVLTQSPLSLTVTPGEPASISCRSSESLVHSNGNTYLSWLQQRPGQPPRLLIYKISNRFSGVPDRFSGSGAGTDFTLKISRVEAEDVGVYYCTQATQFPYTFGQGTKVEIK |

The remaining lines, values behind:

| Molecule | EC50 [1] [µg/mL] | EC50 [2] [µg/mL] | EC50 [3] [µg/mL] | EC50 [4] [µg/mL] |
| --- | --- | --- | --- | --- |
| GC33单抗模拟物 (antibody) | 0.063 |  |  |  |
| 亲和力成熟变体5E11 (antibody, V domains shown) VH: QVQLKQSGAELMKPGASVKISCKATGYTFSRYWIEWVKQRPGHGLEWIGEILPGSGSTSYNEKFKGKATFTADTSSNTAYMQLSSLTSEDSAVYYCARSARATYYFDYWGQGTTLTVSS VL: DIQMTQTTSSLSASLGDRVTISCWASQDISNYLNWYQQKPDGTVKLLIYYTSTLHSGVPSRFSGSGSGTDYSLTISNLEQEDIATYFCQQGNALPYTFGGGTKLEIK |  | 0.12 |  |  |
| 亲和力成熟变体5A5 (antibody, V domains shown) VH: QVQLQQSGTELVRPGASVKLSCKALGYTFTDYEMHWVKQTPVHGLEWIGAIHPGSGDTAYNQRFKGKATLTADKSSSTAYMEYSSLTSEDSAVYYCTRFYSYAYWGQGTLVTVSA VL: DVVMTQTPLSLPVSLGDQASISCRSSQSLVHSNGNTYLQWYLQKPGQSPKLLIYKVSNRFSGVPDRFSGRGSGTDFTLKISRVEAEDLGVYFCSQSIYVPYTFGGGTKLEIK |  | 0.0951 |  |  |
